Experimental data from patent US8624002B2, “Prostaglandin E2 binding proteins and uses thereof” (AbbVie, Inc., priority 2008, dated 2014).
Substitutions are numbered along the chain they refer to.

Columns and labels:
[1] = Pharmacokinetics of 2B5.8.0 in Balb/C mice; format: in vivo
Description: Pharmacokinetic studies with mouse mAb 2B5.8.0 were carried out in Sprague Dawley rats and Balb/C mice. Male and female rats and mice were dosed intravenously or intraperitoneally (mice only) with a single dose of 4 mg/kg 2B5.8.0 and serum samples were analyzed using antigen capture based chemiluminescent MSD (Meso Scale Discovery) method (Meso Scale Discovery, Gaithersburg, Md.). Pharmacokinetic parameters were calculated by non-compartmental analysis using WinNonlin.
The following MSD assay was used to measure antibody concentration in rat and mouse serum. MSD streptavidin plates (Meso Scale Discovery, Gaithersburg, Md.) were washed with phosphate buffered saline containing 0.05% Tween-20 (Sigma, St. Louis, Mo.). Plates were blocked with 250 μL/well blocking solution (MSD Block, Meso Scale Discovery, diluted to 3% final concentration in PBS) for 1 hour, covered, with shaking (600 rpm) at room temperature. After washing, 70 μL of biotinylated PGE2 (Prostoglandin E2-biotinamide, Cayman Chemical, Ann Arbor, Mich., cat# 10006987, lot# 190831-191028, 0.01 ug/mL in assay buffer) was added to each well. The plates were covered and incubated with shaking (600 rpm) for 1 hour at room temperature
(§1) Prior to analysis, rat and mouse serum samples were thawed on ice, mixed gently, and centrifuged at 14,000 rpm for 3 minutes at 4° C. in an eppendorf centrifuge. Standard curve and control samples were prepared in rat and mouse serum. A Tecan Evo automated liquid handling station was used to dilute standard curve, high, medium, and low controls, and serum samples in assay buffer, keeping 1% final serum concentration constant. MSD plates were washed again and study samples, standard curve samples and blanks, as well as high, medium, and low controls were added (70 μL/well). The plates were covered, and incubated for 1 hour with shaking (600 rpm) at room temperature.
(§2) After incubation, the MSD plates were washed, and 70 μL of sulfo-tagged goat anti-mouse IgG (Meso Scale Discovery; diluted to 1 ug/mL in assay buffer) was added to each well. The MSD plates were covered, and incubated with shaking (600 rpm) for 1 hour at room temperature, then the plates were washed and developed with 2× Read Buffer (Meso Scale Discovery). Chemilumeniscence was measured within ten minutes on the MSD Sector Imager 6000.
(§3) Standard curves were analyzed using four-parameter logistic fit and sample concentrations were calculated by XLfit4 software version 2.2.1 Build 16, ([…].). Pharmacokinetic parameters were calculated for each animal using Winonlin software version 5.0.1 (Pharsight Corporation, Mountain View, Calif.) by noncompartmental analysis.
Male and female Balb/c mice (weighing approximately 0.025 kg) were purchased from Charles River Laboratories (Wilmington, Mass.). The animals were allowed food and water ad libitum. Blood samples were collected (0.2 mL from the rats via the tail vein and by cardiac puncture from the mice) at various timepoints (5 mice at each timepoint) allowed to clot for 30 minutes at room temperature, centrifuged for 3 minutes at 13,200 rpm, the serum transferred to eppendorf tubes and stored frozen at −80° C.

[2] = Pharmacokinetics of hu2B5.7 and hu2B5.4 in Sprague-Dawley rats; format: in vivo; settings: male Sprague-Dawley rats, IV 4 mg/kg
Description: Pharmacokinetic parameters were calculated by non-compartmental analysis using WinNonlin.
MSD streptavidin plates (Meso Scale Discovery) were washed with phosphate buffered saline containing 0.05% Tween-20 (diluted from 10×PBS, Abbott Bioresearch Center, Media Room, Worcester, Mass. and Tween-20, Sigma, St. Louis, Mo.). Plates were blocked with 250 μL/well blocking solution (MSD Block, Meso Scale Discovery, diluted to 3% final concentration in PBS) for 1 hour, covered, with shaking (600 rpm) at room temperature. After washing, 70 μL of biotinylated PGE2 (Prostoglandin E2-biotinamide, Cayman Chemical, Ann Arbor, Mich., cat# 10006987, lot# 190831-191028; 0.01 ug/mL in assay buffer) was added to each well. The plates were covered and incubated with shaking (600 rpm) for 1 hour at room temperature.
as §1, with “rat” for “rat and mouse”, “serum.” for “serum. A”
as §2, with “μL” for “μL of”, “anti-human” for “anti-mouse”
as §3
Surgically altered jugular vein cannulated, JVC) male Sprague-Dawley Rats (approximately seven weeks old, weighing 240-390 grams) were purchased from Charles River Laboratories (Wilmington, Mass.). The animals were housed in rooms maintained at constant temperature and humidity under a 12 hour light/dark cycle, fed with normal rodent chow and were allowed food and water ad libitum. Hydration and clinical conditions of the animals were monitored daily.
0.2 mL blood samples were collected from the rats at various timepoints, allowed to clot for 30 minutes at room temperature, centrifuged for 3 minutes at 13,200 rpm, the serum transferred to eppendorf tubes and stored frozen at −80° C.

[3] = mice, intraperitoneal, both sexes

B1: 2B5-8.0: recombinant anti-PGE2 antibody from solved 2B5 sequence; VH SEQ ID NO 42, VL SEQ ID NO 43 (antibody, V domains shown)
VH: QVQLQQSGPELVRPGSSVKISCKASGYTFTKYWLGWVKQRPGHGLEWIGDIYPGYDYTHYNEKFKDKATLTVDTSSSTAYMQLSSLTSEDSAIYYCARSDGSSTYWGQGTLVTVSA
VL: DVLMTQTPLSLPVSLGDQASISCTSSQNIVHSNGNTYLEWYLQRPGQSPKLLIYKVSNRFSGVPDRFSGSGSGTVFTLKISRVEAEDLGVYYCFQVSHVPYTFGGGTKLEIKR
**Q.** Which Cmax [1, 3] does the source give for B1 here?
**A.** 37000 to 49000 ng/mL

**Q.** And the bioavailability [1, 3]?
**A.** 65.8-72.0%

**Q.** What about the half-life [1, 3] of the same molecule?
**A.** 13.8 to 16.1 days

**Q.** What about the “AUC0-∞” value ([1]; mouse, female, IP 4 mg/kg) of the same molecule?
**A.** 16100 µg·h/mL

**Q.** What about the “Cmax” value ([1]; mouse, female, IP 4 mg/kg) of the same molecule?
**A.** 49400 ng/mL

**Q.** And the “F (%)” value ([1]; mouse, female, IP 4 mg/kg)?
**A.** 65.8%

**Q.** What about the “MRT” value ([1]; mouse, female, IP 4 mg/kg) of the same molecule?
**A.** 19.3 days

**Q.** What about the “Tmax” value ([1]; mouse, female, IP 4 mg/kg) of the same molecule?
**A.** 1 days

**Q.** And the “T½” value ([1]; mouse, female, IP 4 mg/kg)?
**A.** 13.8 days

**Q.** And the “AUC0-∞” value ([1]; mouse, female, IV 4 mg/kg)?
**A.** 24500 µg·h/mL

**Q.** What about the “CL” value ([1]; mouse, female, IV 4 mg/kg) of the same molecule?
**A.** 3.84 mL/day/kg

**Q.** What about the “MRT” value ([1]; mouse, female, IV 4 mg/kg) of the same molecule?
**A.** 22.8 days

**Q.** What about the “T½” value ([1]; mouse, female, IV 4 mg/kg) of the same molecule?
**A.** 16.2 days

**Q.** What about the “Vss” value ([1]; mouse, female, IV 4 mg/kg) of the same molecule?
**A.** 0.089 L/kg

**Q.** And the “Vz” value ([1]; mouse, female, IV 4 mg/kg)?
**A.** 0.092 L/kg

**Q.** And the “AUC0-∞” value ([1]; mouse, male, IP 4 mg/kg)?
**A.** 19400 µg·h/mL

**Q.** What about the “Cmax” value ([1]; mouse, male, IP 4 mg/kg) of the same molecule?
**A.** 37300 ng/mL

**Q.** And the “F (%)” value ([1]; mouse, male, IP 4 mg/kg)?
**A.** 72%

**Q.** What about the “MRT” value ([1]; mouse, male, IP 4 mg/kg) of the same molecule?
**A.** 23.4 days

**Q.** And the “Tmax” value ([1]; mouse, male, IP 4 mg/kg)?
**A.** 2 days

**Q.** What about the “T½” value ([1]; mouse, male, IP 4 mg/kg) of the same molecule?
**A.** 16.1 days

**Q.** And the “AUC0-∞” value ([1]; mouse, male, IV 4 mg/kg)?
**A.** 26900 µg·h/mL

**Q.** What about the “CL” value ([1]; mouse, male, IV 4 mg/kg) of the same molecule?
**A.** 3.6 mL/day/kg

**Q.** And the “MRT” value ([1]; mouse, male, IV 4 mg/kg)?
**A.** 37.5 days

**Q.** And the “T½” value ([1]; mouse, male, IV 4 mg/kg)?
**A.** 26.3 days

**Q.** What about the “Vss” value ([1]; mouse, male, IV 4 mg/kg) of the same molecule?
**A.** 0.134 L/kg

**Q.** And the “Vz” value ([1]; mouse, male, IV 4 mg/kg)?
**A.** 0.135 L/kg

B2: Hu2B5.4: humanized 2B5-8.0; VH SEQ ID NO 66, VL SEQ ID NO 67 (antibody, V domains shown)
VH: EVQLVQSGAEVKKPGASVKVSCKASGYTFTKYWLGWVRQAPGQGLEWIGDIYPGYDYTHYNEKFKDRATLTVDTSTSTAYMELSSLRSDDTAVYYCARSDGSSTYWGQGTLVTVSS
VL: B1 VL with S14T, L15P, D17E, Q18P, R44K, K50Q, V75D, L88V, L109V
**Q.** For B2, which “AUC0-∞” value [2] is on record?
**A.** 11800 ± 2000 µg·h/mL

**Q.** What about the “CL” value [2] of the same molecule?
**A.** 8.4 ± 1.7 mL/day/kg

**Q.** What about the “MRT” value [2] of the same molecule?
**A.** 18.0 ± 6.0 days

**Q.** What about the “T½” value [2] of the same molecule?
**A.** 12.4 days

**Q.** What about the “Vss” value [2] of the same molecule?
**A.** 0.145 ± 0.0318 L/kg

**Q.** And the “Vz” value [2]?
**A.** 0.143 ± 0.0402 L/kg
